Test results: the RNAGym collection of RNA variant scans (doi:10.7554/elife.80360)

B1: CPEB3 Ribozyme (parent)
chain: GGGGGCCACAGCAGAAGCGUUCACGUCGCGGCCCCUGUCAGAUUCUGGUGAAUCUGCGAAUUCUGCUGU

Variants of: B1
Test: self-cleavage, relative activity (ratio to wild type); higher = more cleavage; co-transcriptional

Variant | self-cleavage
GGGGGCCACAGCAGAAGCGUUCACGUCGCGGCCCCUGUCAGAUUCUGGUGAUUCUGCGAAAUCUGCUGU [A52U U61A] | 0.935
GGGGGCCACAGCAGAAGCGUUCACGUCGCGGCCCCUGUCAGAUUCUGGUGAUUCUGCGAACUCUGCUGU [A52U U61C] | 0.68
GGGGGCCACAGCAGAAGCGUUCACGUCGCGGCCCCUGUCAGAUUCUGGUGAACCUGCGAAUUGUGCUGU [U53C C63G] | 0.451
GGGGGCCACAGCAGAAGCGUUCACGUCGCGGCCCCUGUCAGAUUCUGGUGAACCUGCGAAUUAUGCUGU [U53C C63A] | 0.402
GGGGGCCACAGCAGAAGCGUUCACGUCGCGGCCCCUGUCAGAUUCUGGUGAAACUGCGAAUUCUGUUGU [U53A C66U] | 0.911
GGGGGCCACAGCAGAAGCGUUCACGUCGCGGCCCCUGUCAGAUUCUGGUGAAACUGCGAAUUCUGGUGU [U53A C66G] | 0.624
GGGGGCCACAGCAGAAGCGUUCACGUCGCGGCCCCUGUCAGAUUCUGGUGAUGCUGCGAAUUCUGCUGU [A52U U53G] | 0.871
GGGGGCCACAGCAGAAGCGUUCACGUCGCGGCCCCUGUCAGAUUCUGGUGAUACUGCGAAUUCUGCUGU [A52U U53A] | 0.981
GGGGGCCACAGCAGAAGCGUUCACGUCGCGGCCCCUGUCAGAUUCUGGUGAUCCUGCGAAUUCUGCUGU [A52U U53C] | 0.879
GGGGGCCACAGCAGAAGCGUUCACGUCGCGGCCCCUGUCAGAUUCUGGUGAUUCUGAGAAUUCUGCUGU [A52U C57A] | 0.453
GGGGGCCACAGCAGAAGCGUUCACGUCGCGGCCCCUGUCAGAUUCUGGUGAUUCUGGGAAUUCUGCUGU [A52U C57G] | 0.334
GGGGGCCACAGCAGAAGCGUUCACGUCGCGGCCCCUGUCAGAUUCUGGUGAUUCUGUGAAUUCUGCUGU [A52U C57U] | 0.309
GGGGGCCACAGCAGAAGCGUUCACGUCGCGGCCCCUGUCAGAUUCUGGUGAUUCUGCGAAUUCUACUGU [A52U G65A] | 0.783
GGGGGCCACAGCAGAAGCGUUCACGUCGCGGCCCCUGUCAGAUUCUGGUGAACAUGCGAAUUCUGCUGU [U53C C54A] | 0.506
GGGGGCCACAGCAGAAGCGUUCACGUCGCGGCCCCUGUCAGAUUCUGGUGAACGUGCGAAUUCUGCUGU [U53C C54G] | 0.424
GGGGGCCACAGCAGAAGCGUUCACGUCGCGGCCCCUGUCAGAUUCUGGUGAAACUGCGAAUUCUGCUUU [U53A G68U] | 0.978
GGGGGCCACAGCAGAAGCGUUCACGUCGCGGCCCCUGUCAGAUUCUGGUGAAACUGCGAAUUCUGCUAU [U53A G68A] | 1.03
GGGGGCCACAGCAGAAGCGUUCACGUCGCGGCCCCUGUCAGAUUCUGGUGAAACUGCGAAUUCUGCUCU [U53A G68C] | 1.03
GGGGGCCACAGCAGAAGCGUUCACGUCGCGGCCCCUGUCAGAUUCUGGUGAAACUGCGUAUUCUGCUGU [U53A A59U] | 0.646
GGGGGCCACAGCAGAAGCGUUCACGUCGCGGCCCCUGUCAGAUUCUGGUGAAACUGCGCAUUCUGCUGU [U53A A59C] | 0.571

Variant | self-cleavage
GGGGGCCACAGCAGAAGCGUUCACGUCGCGGCCCCUGUCAGAUUCUGGUGAAACUGCGGAUUCUGCUGU [U53A A59G] | 0.98
GGGGGCCACAGCAGAAGCGUUCACGUCGCGGCCCCUGUCAGAUUCUGGUGAUUCUCCGAAUUCUGCUGU [A52U G56C] | 0.456
GGGGGCCACAGCAGAAGCGUUCACGUCGCGGCCCCUGUCAGAUUCUGGUGAAACUGCGAAUUCUUCUGU [U53A G65U] | 0.587
GGGGGCCACAGCAGAAGCGUUCACGUCGCGGCCCCUGUCAGAUUCUGGUGAAACUGCGAAUUCUCCUGU [U53A G65C] | 0.552
GGGGGCCACAGCAGAAGCGUUCACGUCGCGGCCCCUGUCAGAUUCUGGUGAAACUGCGAAUUCUACUGU [U53A G65A] | 0.739
GGGGGCCACAGCAGAAGCGUUCACGUCGCGGCCCCUGUCAGAUUCUGGUGAAACAGCGAAUUCUGCUGU [U53A U55A] | 0.354
GGGGGCCACAGCAGAAGCGUUCACGUCGCGGCCCCUGUCAGAUUCUGGUGAAACUGGGAAUUCUGCUGU [U53A C57G] | 0.345
GGGGGCCACAGCAGAAGCGUUCACGUCGCGGCCCCUGUCAGAUUCUGGUGAAACUGUGAAUUCUGCUGU [U53A C57U] | 0.376
GGGGGCCACAGCAGAAGCGUUCACGUCGCGGCCCCUGUCAGAUUCUGGUGAUUGUGCGAAUUCUGCUGU [A52U C54G] | 0.835
GGGGGCCACAGCAGAAGCGUUCACGUCGCGGCCCCUGUCAGAUUCUGGUGAUUAUGCGAAUUCUGCUGU [A52U C54A] | 0.907
GGGGGCCACAGCAGAAGCGUUCACGUCGCGGCCCCUGUCAGAUUCUGGUGAUUCCGCGAAUUCUGCUGU [A52U U55C] | 0.63
GGGGGCCACAGCAGAAGCGUUCACGUCGCGGCCCCUGUCAGAUUCUGGUGAUUCUGCGAAUUCUGCUGC [A52U U69C] | 1.05
GGGGGCCACAGCAGAAGCGUUCACGUCGCGGCCCCUGUCAGAUUCUGGUGAUUCUGCGAAUUCUGCUGG [A52U U69G] | 1.04
GGGGGCCACAGCAGAAGCGUUCACGUCGCGGCCCCUGUCAGAUUCUGGUGAUUCUGCGAAUUCGGCUGU [A52U U64G] | 0.666
GGGGGCCACAGCAGAAGCGUUCACGUCGCGGCCCCUGUCAGAUUCUGGUGAUUCUGCGAAUUCCGCUGU [A52U U64C] | 0.741
GGGGGCCACAGCAGAAGCGUUCACGUCGCGGCCCCUGUCAGAUUCUGGUGAAACUGCGAAUCCUGCUGU [U53A U62C] | 0.634
GGGGGCCACAGCAGAAGCGUUCACGUCGCGGCCCCUGUCAGAUUCUGGUGAAACUGCGAAUACUGCUGU [U53A U62A] | 0.821
GGGGGCCACAGCAGAAGCGUUCACGUCGCGGCCCCUGUCAGAUUCUGGUGAAACUGCGAAUGCUGCUGU [U53A U62G] | 0.74
GGGGGCCACAGCAGAAGCGUUCACGUCGCGGCCCCUGUCAGAUUCUGGUGAACCUGCGAAUUCUGGUGU [U53C C66G] | 0.477
